Earlier results on one substance are cited in patent US7557183B2, “Polyethylene glycol linked GLP-1 compounds” (Eli Lilly and Company, priority 2003, dated 2009).

For this data set the following is noted: in vivo.

As for “GLP-1(7-37): native truncated GLP-1 peptide, SEQ ID NO: 1”, the serum half-life is 3 to 5 min.
